Experimental data: patent publication US20230070731A1, “COMPOSITIONS FOR SMALL MOLECULE CONTROL OF PRECISE BASE EDITING OF TARGET NUCLEIC ACIDS AND METHODS OF USE THEREOF” (THE TRUSTEES OF THE UNIVERSITY OF PENNSYLVANIA, priority 2020, published 2023)
Blank lines part the entries; values can stand above or below the substance they belong to.

How the values were obtained:
Test in all cases: cell-based or functional assay
[1] = target: AID′-seBE4max fragment containing FKBP12, the DNA deaminase C-terminus, nCas9, and two UGIs in series (human) (UniProt P62942)
[2] = target: evoA1-seBE4max fragment containing FKBP12, the DNA deaminase C-terminus, nCas9, and two UGIs in series (rat) (UniProt P62942)
[3] = target: GFP11-AID*C (AID*-SPL2C) (human) (UniProt Q9GZX7)

Substance: AID′-seBE4max fragment containing the DNA deaminase N-terminus and FRB (from UniProt Q9GZX7 1-72; P42345 2021-2113)
- GFP^off cells by flow cytometry, targeting sgRNA, no rapamycin [1]: 7%
- GFP^off cells by flow cytometry, targeting sgRNA, with rapamycin (200 nM) [1]: 35%

Substance: evoA1-seBE4max fragment containing the DNA deaminase N-terminus and FRB (from UniProt P38483 2-78; P42345 2021-2113)
- fold induction of base editing by rapamycin across seven genomic loci [2]: 8.2 fold
- on-target base editing across seven genomic loci (deep sequencing), no rapamycin [2]: 3%
- on-target base editing across seven genomic loci (deep sequencing), with rapamycin [2]: 28%

- in vitro deaminase activity on a labeled oligonucleotide substrate (EC50 of enzyme) (fold reduced from intact AID*) [3]: 4
Substance: AID*N-optGFP1-10 (AID*-SPL2N) (from UniProt Q9GZX7 1-72)
